± gives the uncertainty stated by the source.

This note sets out measurements from the supplement of paper PMC12042874.

A short description of the series: amyloid nucleation score (Sup35N fusion, yeast selection) (log enrichment); library NNK1; higher = more nucleation; inactive = no reads after selection. Put shortly:
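Random libraries were run with three technical output replicates. In each, psi-negative yeast expressing Sup35N fused to peptides of 20 random codons were induced 24 hours with 100 μM copper sulfate and grown 7 days at 30°C on medium lacking adenine and uracil, and input and output plasmid inserts were Illumina-sequenced. The nucleation score is the DiMSum log enrichment of output over input reads, centred on the mode score of non-aggregating sequences, and sequences under 100 input reads were excluded.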
Take FMPYWNTLNFMSYGVRLIHK: the amyloid nucleation score is 0.231 ± 0.65.

FMSICPSTNGRCACRWLRM came in with an amyloid nucleation score of 0.857 ± 0.98.

Turning to FMVACWHSKWAYDNCYYNSS, the amyloid nucleation score entry was “inactive”.

FMWKINWRENLYRLYSFSAY gave an amyloid nucleation score of -0.11 ± 0.51.

For the substance FMYILYYDMWYACASFR, the amyloid nucleation score entry was “inactive”.

As for FNHMLSMVGSRVCYLAMSFV, the amyloid nucleation score turned out to be 0.17 ± 0.58.

Consider FNLGTNK, for which the amyloid nucleation score is -0.442 ± 0.3.

FNLISGKIGYRLLQTCIMMM showed an amyloid nucleation score of -0.963 ± 0.51.

FNLSLLRSSCAVH registered an amyloid nucleation score of 1.04 ± 0.62.

In turn, FNRCMFHFGDEVVKELL gave an amyloid nucleation score of -0.376 ± 0.91.

The substance FNRKISFFCN gave an amyloid nucleation score of -0.393 ± 0.4.

As to FNVKSSMRNPGCIPWHRATY, the amyloid nucleation score is -0.616 ± 1.7.

With FNWDGQFAVCMWKS, the amyloid nucleation score was -0.221 ± 0.38.

FPMWYYH had an amyloid nucleation score of -0.366 ± 0.74.

Take FPSLFFLLA: the amyloid nucleation score entry is “inactive”.

Consider FPWSGAWMD, for which the amyloid nucleation score amounted to 0.029 ± 1.

In turn, FQATR displayed an amyloid nucleation score of -0.238 ± 0.32.

The substance FQGRNYECIFVDFLRSQKGV yielded an amyloid nucleation score of 0.292 ± 1.2.

Consider FQLRNL, for which the amyloid nucleation score was found to be 0.414 ± 0.34.

With FQVFYFGCGRHVMVSSYRWV, the amyloid nucleation score is -0.363 ± 0.54.

Substance FRDFWLDNVLNMMVGCAARD displayed an amyloid nucleation score of -0.692 ± 1.2.

For FRELVDERLRRASQFHWFHF, the amyloid nucleation score worked out at 0.557 ± 0.8.

FRFSGHWGETIASRTG: the amyloid nucleation score worked out at 0.376 ± 0.95.

Substance FRFVG came in with an amyloid nucleation score of -1.53 ± 0.83.

As to FRKCVGAQGGSGSWNGCPSE, the amyloid nucleation score amounted to 1.99 ± 0.23.

Take FRKLAIFHLAE: the amyloid nucleation score came to 0.207 ± 0.69.

Turning to FRLGPLEQ, the amyloid nucleation score was -1.61 ± 1.7.

FRLRL came in with an amyloid nucleation score of 0.019 ± 0.83.

In turn, FRNCVF came in with an amyloid nucleation score of -0.141 ± 0.49.

On to FRPMEWLTFCSVRGLLLTIP, for which the amyloid nucleation score entry was “inactive”.

Consider FRRIFSWACPV, for which the amyloid nucleation score was 0.352 ± 0.58.

With FRSELMFSVLPFLGASSVAC, the amyloid nucleation score worked out at 1.44 ± 0.69.

In turn, FRSFKNTY showed an amyloid nucleation score of -1.3 ± 0.45.

Substance FRSFLLPR came in with an amyloid nucleation score of 0.644 ± 0.54.

Substance FRTHRPTIFHFIGMRLRTLA returned an amyloid nucleation score of 0.399 ± 0.91.

As for FSALLIPENISD, the amyloid nucleation score is -1.25 ± 1.7.

As for FSASLNDLGLQKRVNVSVD, the amyloid nucleation score was -0.413 ± 0.49.

The substance FSCYM came in with an amyloid nucleation score of 0.245 ± 0.9.

Substance FSDTRTGGDSTPKN gave an amyloid nucleation score of 0.108 ± 0.36.

Take FSDVQCG: the amyloid nucleation score entry is “inactive”.

Turning to FSFYS, the amyloid nucleation score is -0.44 ± 0.65.

For FSLNQCVKGHVFGATICTLR, the amyloid nucleation score was determined as 1.86 ± 0.43.

The substance FSMVAPTVILLKYYN returned an amyloid nucleation score of -0.111 ± 0.21.

In turn, FSPFLIMVSESPFHPIPELR returned an amyloid nucleation score of -0.991 ± 2.4.

Substance FSRISCFP registered an amyloid nucleation score of 0.638 ± 0.61.

As to FSRNAAYMIICSTGRRKFWH, the amyloid nucleation score is 3.75 ± 0.074.

As to FSSCRPMIYLRCTEYNG, the amyloid nucleation score is -0.41 ± 1.9.

Substance FSSNLLECRCLWKTQASNST returned an amyloid nucleation score of 0.271 ± 0.33.

For the substance FSTFYY, the amyloid nucleation score entry is “inactive”.

The substance FSTLICIGVE registered an amyloid nucleation score of -0.35 ± 0.65.

The substance FSVNILQQFIMGQSRICVGA came in with an amyloid nucleation score of -0.044 ± 0.38.

Turning to FSVYAWGVFFDAVWFSCAVA, the amyloid nucleation score is 1.29 ± 0.84.

Substance FSWTYVYYNN displayed an amyloid nucleation score of 0.433 ± 0.89.

The substance FSYRWGLVFSFRDVKLL displayed an amyloid nucleation score of 2.27 ± 0.11.

Substance FTCFATCCVLMNNVYYFMTL showed an amyloid nucleation score of 5.085 ± 0.05.

For FTCLVNSNSPL, the amyloid nucleation score was 0.606 ± 0.71.

Regarding FTCMCH, the amyloid nucleation score result was “inactive”.

Substance FTFKWMGSPWLWR showed an amyloid nucleation score of 0.485 ± 1.2.

For the substance FTFSFLYFFQWCHTGAPARF, the amyloid nucleation score was 0.602 ± 0.73.

Substance FTIIFSTYISMVVVDLRVVP showed an amyloid nucleation score of -0.409 ± 0.36.

FTISGLYSFFVSLLGKEYYG yielded an amyloid nucleation score of -0.074 ± 0.43.

FTMLYSVYPSGRPGSQSGR displayed an amyloid nucleation score of 1.92 ± 0.21.

Take FTQRSSVR: the amyloid nucleation score came to 0.651 ± 0.7.

The substance FTRDVYRWKYPNYLVKYSTP displayed an amyloid nucleation score of -0.199 ± 0.85.

In turn, FTSLYSNILHKSTCLQ showed an amyloid nucleation score of 0.288 ± 0.9.

In turn, FTSRRATCDIGNSMNACFER had an amyloid nucleation score of 1.5 ± 0.73.

On to FTVLSVVSALQGGRHYPLMG, for which the amyloid nucleation score came to 0.357 ± 0.33.

For FVFLISAL, the amyloid nucleation score was -0.617 ± 0.5.

Turning to FVGLVDN, the amyloid nucleation score was 0.051 ± 0.49.

FVGSRRGLARVAEYGWLYHG came in with an amyloid nucleation score of -0.464 ± 0.74.

FVHVYLERDRPNLTPFI had an amyloid nucleation score of 0.084 ± 0.33.

In the case of FVIDACIFC, the amyloid nucleation score amounted to 9.445 ± 0.071.

Take FVLRTFQVDNSRQDTTNVST: the amyloid nucleation score came out at 0.309 ± 0.48.

Regarding FVMRAFNLIRWVGSACNLET, the amyloid nucleation score result is “inactive”.

For FVNFWN, the amyloid nucleation score was determined as 0.473 ± 0.53.

In turn, FVPVKFITIGSYVLHTGSLL had an amyloid nucleation score of 0.834 ± 0.73.

FVSPVTSSQNSPVIVVRSLL returned an amyloid nucleation score of -0.561 ± 0.48.

As to FVYLR, the amyloid nucleation score was 0.98 ± 0.55.

Regarding FWNLVF, the amyloid nucleation score stood at 1.36 ± 0.64.

FWSLYD yielded an amyloid nucleation score of 0.003 ± 0.4.

Turning to FYASQRSTPHAVFLCNALKV, the amyloid nucleation score was found to be 0.304 ± 0.52.

The substance FYCVDN registered an amyloid nucleation score of 0.547 ± 0.65.

Substance FYFRHSVLMCKHLFQFDYKE registered an amyloid nucleation score of 0.668 ± 0.45.

With FYGTLVCVRRYSVVLNSNLE, the amyloid nucleation score was found to be 0.751 ± 0.93.

FYLLTGLFSQVGTLLFHWSR yielded an amyloid nucleation score of -0.819 ± 0.51.

On to FYVLATFSNC, for which the amyloid nucleation score came to 0.618 ± 0.4.

Regarding FYVMCSARSQHAFSNKYLGY, the amyloid nucleation score was -0.165 ± 0.26.

Substance GAGIENPSASVIMKREWEVL gave an amyloid nucleation score of 0.382 ± 0.44.

As for GAVARIIDAVCVRLV, the amyloid nucleation score is -0.643 ± 1.1.

Turning to GAVIRRWVIGSGALRDSCND, the amyloid nucleation score was 0.382 ± 1.2.

Regarding GCCSEDFNINGVFCSCPKFC, the amyloid nucleation score came to 7.157 ± 0.057.

On to GCDYARPINWCDTPYGSFNL, for which the amyloid nucleation score was -2.49 ± 2.4.

In turn, GCGRGMLLGFAPWITCPWMS registered an amyloid nucleation score of 0.971 ± 0.49.

The substance GCRGFLIPRMVYS showed an amyloid nucleation score of -0.398 ± 0.97.

The substance GCSIEFFDYGGY returned an amyloid nucleation score of -0.183 ± 0.74.

In turn, GCYWIMAMGQILRRLEDAAG returned an amyloid nucleation score of 1.14 ± 0.72.

The substance GDDVRRPVVSVHNSRGYSFG had an amyloid nucleation score of -0.235 ± 0.32.

The substance GDGVGFVLITHWDVVDDMGC had an amyloid nucleation score of 0.724 ± 0.93.

For the substance GDIRGQMCMWYLW, the amyloid nucleation score was -1.73 ± 2.7.

Substance GDRRLSVLGPYMARSVWGER came in with an amyloid nucleation score of -0.242 ± 0.31.

The substance GDSVESQILLVVGCIY registered an amyloid nucleation score of -0.416 ± 1.2.

The substance GEERHAAYTNWFFLRCLLTY gave an amyloid nucleation score of -0.046 ± 0.65.

With GEFVWKEASATCCSWGKLRR, the amyloid nucleation score is 0.425 ± 0.72.

Substance GEQGNPIIESSREFSSVEHN registered an amyloid nucleation score of 4.33 ± 0.078.

For the substance GESCLDSRFRNDDNR, the amyloid nucleation score turned out to be 0.09 ± 0.33.

Take GESRGS: the amyloid nucleation score is 0.473 ± 0.43.

For the substance GETLEVWFFRRRVIRWR, the amyloid nucleation score result was “inactive”.
